Ends that are not written are not given here. muFc = mouse Fc fragment of vector pCMV-V5-muFc

Test [1] deals with T1, scFv-P1A6E-Fc (human, UniProt P01857-1 99-330 = IgG part, limits assumed).
T1 construct: domain: Fc fragment; scFv cloned NheI/BamHI into pCMV-V5-Fc, expressed in HEK-293F, protein A purified; also called P1A6E single chain antibody; antibody-Fc fusion protein scFv-P1A6E-Fc
The test can be described thus: ELISA, scFv-Fc against MSLT-R2-mFc; x axis con.(nM) [left panel]. (In general: ELISA stands for enzyme-linked immunosorbent assay.)

Test [2] addresses T2, scFv-P3F2-Fc (human, UniProt P01857-1 99-330 = IgG part, limits assumed).
T2 construct: domain: Fc fragment; scFv cloned NheI/BamHI into pCMV-V5-Fc, expressed in HEK-293F, protein A purified; also called P3F2 single chain antibody; P3F2 single chain antibod
The test can be described thus: ELISA, scFv-Fc against MSLT-R2-mFc; x axis con.(nM) [right panel].

Test [3] deals with T2, scFv-P3F2-Fc. The test can be described thus: ELISA, scFv-Fc against MSLT-R1-mFc; x axis con.(nM), the sheet does not say whose concentration [right panel].
Test [4] addresses T1, scFv-P1A6E-Fc. The test can be described thus: ELISA, scFv-Fc against MSLT-R1-mFc; x axis con.(nM), the sheet does not say whose concentration [left panel].
In test [5] the target is T2, scFv-P3F2-Fc. Nature of the test: ELISA, scFv-Fc against MSTL-R1AB-mFc; x axis con.(nM), the sheet does not say whose concentration [right panel].
Test [6] has as its target T1, scFv-P1A6E-Fc. Nature of the test: ELISA, scFv-Fc against MSTL-R1AB-mFc; x axis con.(nM), the sheet does not say whose concentration [left panel].
In test [7] the target is T2, scFv-P3F2-Fc. Nature of the test: flow cytometry on PANC-1-MSLN cells, 20 ug/ml antibody, goat anti-human-FITC. As to the method: (§1) Each of antibodies scFv-P1A6E-Fc and scFv-P3F2-Fc was analyzed for binding ability to mesothelin at cell surface by Fluorescence Activated Cell Sorter (FACS) (Guava 8HT, supplied by Millipore).
(§2) 4) antibodies P1A6E and P3F2 to be tested were added into the two experimental groups, respectively, adding antibodies ss and C10 (purchased from Shanghai Rui Jin Biotechnology Co., Ltd.) were added into two positive control groups added as positive controls, and another control group is PBS blank control without antibody. The final concentration of each antibody was 20 μg/ml. 100 μl was added to each tube, and incubated in an ice bath for 45 minutes.
(In general: A flow cytometer gives signals particle by particle.)

The target in test [8] is T1, scFv-P1A6E-Fc. Described as above. On the procedure:
as §1, §2

The target in test [9] is T2, scFv-P3F2-Fc. The test can be described thus: ELISA, scFv-Fc against MSLT-R3-mFc; x axis con.(nM) [right panel].
The target of test [10] is T1, scFv-P1A6E-Fc. Nature of the test: ELISA, scFv-Fc against MSLT-R3-mFc; x axis con.(nM) [left panel].
The target of test [11] is T2, scFv-P3F2-Fc. The test can be described thus: ELISA, scFv-Fc against MSTL-R1A-mFc; x axis con.(nM), the sheet does not say whose concentration [right panel].
The target in test [12] is T1, scFv-P1A6E-Fc. The test can be described thus: ELISA, scFv-Fc against MSTL-R1A-mFc; x axis con.(nM), the sheet does not say whose concentration [left panel].
Test [13] has as its target T2, scFv-P3F2-Fc. The test can be described thus: ELISA, scFv-Fc against MSTL-R1B-mFc; x axis con.(nM) [right panel].
In test [14] the target is T1, scFv-P1A6E-Fc. The test can be described thus: ELISA, scFv-Fc against MSTL-R1B-mFc; x axis con.(nM) [left panel].
Test [15] has as its target T2, scFv-P3F2-Fc. Nature of the test: ELISA on peptide-muFc fusion proteins.
In test [16] the target is T1, scFv-P1A6E-Fc. Nature of the test: ELISA on peptide-muFc fusion proteins.

T1 sequence (P01857 other isoform, or with tags, fused parts or gaps limits assumed): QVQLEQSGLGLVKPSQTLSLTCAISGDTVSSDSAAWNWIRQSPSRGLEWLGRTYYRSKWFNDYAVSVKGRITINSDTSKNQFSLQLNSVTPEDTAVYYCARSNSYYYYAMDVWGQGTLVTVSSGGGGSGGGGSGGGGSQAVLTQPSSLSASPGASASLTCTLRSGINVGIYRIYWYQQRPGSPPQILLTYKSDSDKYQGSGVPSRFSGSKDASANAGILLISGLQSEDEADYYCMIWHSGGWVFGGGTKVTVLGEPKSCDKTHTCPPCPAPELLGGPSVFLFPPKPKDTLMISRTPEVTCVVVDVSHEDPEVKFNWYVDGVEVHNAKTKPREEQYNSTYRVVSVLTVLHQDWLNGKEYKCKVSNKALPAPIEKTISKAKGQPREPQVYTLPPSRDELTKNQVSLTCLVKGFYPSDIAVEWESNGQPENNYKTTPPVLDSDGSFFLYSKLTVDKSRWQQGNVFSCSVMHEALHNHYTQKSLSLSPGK
T2 sequence (P01857 other isoform, or with tags, fused parts or gaps limits assumed): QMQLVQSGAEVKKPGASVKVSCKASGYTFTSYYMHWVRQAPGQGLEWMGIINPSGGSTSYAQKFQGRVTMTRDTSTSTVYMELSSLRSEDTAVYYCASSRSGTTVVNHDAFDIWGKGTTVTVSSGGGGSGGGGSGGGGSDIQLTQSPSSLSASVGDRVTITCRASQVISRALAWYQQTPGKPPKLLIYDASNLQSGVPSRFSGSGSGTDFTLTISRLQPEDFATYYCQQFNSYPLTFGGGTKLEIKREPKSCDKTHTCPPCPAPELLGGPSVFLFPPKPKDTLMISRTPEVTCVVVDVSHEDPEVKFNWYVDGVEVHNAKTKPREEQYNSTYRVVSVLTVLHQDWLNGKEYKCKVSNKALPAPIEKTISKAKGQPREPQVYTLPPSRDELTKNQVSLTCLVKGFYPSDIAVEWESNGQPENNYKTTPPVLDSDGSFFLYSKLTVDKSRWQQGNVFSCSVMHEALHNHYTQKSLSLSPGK

B1: human mesothelin region R2 (S391-Q486)-muFc fusion protein (Fc fusion)
chain: SLETLKALLEVNKGHEMSPQVATLIDRFVKGRGQLDKDTLDTLTAFYPGYLCSLSPEELSSVPPSSIWAVRPQDLDTCDPRQLDVLYPKARLAFQ
notes: not shown: mouse Fc fragment of vector pCMV-V5-muFc
Turning to B1, the binding result with scFv-P1A6E-Fc [1] is “no binding (tested: last point between 100 and 1000 nM)”; with scFv-P3F2-Fc [2], “no binding (tested: last point between 100 and 1000 nM)”.

B2: human mesothelin region R1 (E296-T390)-muFc fusion protein (Fc fusion)
chain: EVEKTACPSGKKAREIDESLIFYKKWELEACVDAALLATQMDRVNAIPFTYEQLDVLKHKLDELYPQGYPESVIQHLGYLFLKMSPEDIRKWNVT
notes: also called region 1; not shown: mouse Fc fragment of vector pCMV-V5-muFc
With B2, the binding result with scFv-P3F2-Fc [3] and in the test with scFv-P1A6E-Fc [4] was “binds” in each case.

B3: human mesothelin region R1AB (296E-359L)-muFc fusion protein (Fc fusion)
chain: EVEKTACPSGKKAREIDESLIFYKKWELEACVDAALLATQMDRVNAIPFTYEQLDVLKHKLDEL
notes: as for B1
Regarding B3, the binding result with scFv-P3F2-Fc [5] and with scFv-P1A6E-Fc [6] was “binds” in each case.

B4: human mesothelin on PANC-1-MSLN cells (other)
chain: APLADYKDDDDKEVEKTACPSGKKAREIDESLIFYKKWELEACVDAALLATQMDRVNAIPFTYEQLDVLKHKLDELYPQGYPESVIQHLGYLFLKMSPEDIRKWNVTSLETLKALLEVNKGHEMSPQVATLIDRFVKGRGQLDKDTLDTLTAFYPGYLCSLSPEELSSVPPSSIWAVRPQDLDTCDPRQLDVLYPKARLAFQNMNGSEYFVKIQSFLGGAPTEDLKALSQQNVSMDLATFMKLRTDAVLPLTVAEVQKLLGPHVEGLKAEERHRPVRDWILRQRQDDLDTLGLGLQGGIPNGYLVLDLSMQEALS
notes: also called mesothelin at cell surface
Turning to B4, the binding result with scFv-P3F2-Fc [7] and in the test with scFv-P1A6E-Fc [8] was “binds” in each case.

B5: human mesothelin region R3 (N487-G581)-muFc fusion protein (Fc fusion)
chain: NMNGSEYFVKIQSFLGGAPTEDLKALSQQNVSMDLATFMKLRTDAVLPLTVAEVQKLLGPHVEGLKAEERHRPVRDWILRQRQDDLDTLGLGLQG
notes: as for B1
Take B5: the binding result in the test with scFv-P3F2-Fc [9] was “no binding (tested: last point between 100 and 1000 nM)”; with scFv-P1A6E-Fc [10], “no binding (tested: last point between 100 and 1000 nM)”.

B6: human mesothelin region R1A (296E-337D)-muFc fusion protein (Fc fusion)
chain: EVEKTACPSGKKAREIDESLIFYKKWELEACVDAALLATQMD
notes: as for B1
With B6, the binding result with scFv-P3F2-Fc [11] and with scFv-P1A6E-Fc [12] was “binds” throughout.

B7: human mesothelin region R1B (328D-369I)-muFc fusion protein (Fc fusion)
chain: DAALLATQMDRVNAIPFTYEQLDVLKHKLDELYPQGYPESVI-muFc
notes: as for B1
In the case of B7, the binding result with scFv-P3F2-Fc [13] and with scFv-P1A6E-Fc [14] was “no binding (tested: last point just under 100 nM)” throughout.
As to YKKWELEACVDAALLATQMDRVNAIPFTYE (Fc fusion, not shown: mouse Fc fragment (muFc)) [mesothelin peptide R1J10-muFc fusion protein], the binding result with scFv-P3F2-Fc [15] and with scFv-P1A6E-Fc [16] was “no binding” throughout.
